Assays:
[1] = target: MC179, the CD36-binding portion (M2 subdomain) of the CIDR1α domain of PfEMP1 from the Malayan Camp (MC) strain of P. falciparum (Plasmodium falciparum (Malayan Camp strain)); assay: cross-linking; chemical cross-linking of MC179 in solution (data not shown)
[2] = target: MC179, the CD36-binding portion (M2 subdomain) of the CIDR1α domain of PfEMP1 from the Malayan Camp (MC) strain of P. falciparum (Plasmodium falciparum (Malayan Camp strain)); assay: SEC; refolded MC179 on a Superdex 75 size exclusion column; species with the mobility of dimers separated from monomers

## MC179, the CD36-binding portion (M2 subdomain) of the CIDR1α domain of PfEMP1 from the Malayan Camp (MC) strain of P. falciparum (domain or fragment)
[1]
  stoichiometry N: 2
[2]
  stoichiometry N: 2

From PMC2518858
